Assays:
[1] = molecular target: T1, full-length class E TetR (Escherichia coli) (UniProt P21337)
T1 sequence: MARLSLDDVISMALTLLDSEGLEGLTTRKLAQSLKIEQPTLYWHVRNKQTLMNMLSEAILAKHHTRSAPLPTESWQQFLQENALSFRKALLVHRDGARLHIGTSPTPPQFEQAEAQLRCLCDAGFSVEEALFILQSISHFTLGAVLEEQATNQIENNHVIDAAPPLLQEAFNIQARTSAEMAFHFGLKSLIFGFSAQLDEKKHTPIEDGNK

[2] = molecular target: full-length class D TetR (Escherichia coli) (UniProt P0ACT4)
[3] = molecular target: full-length class B TetR (wild-type, Tn10-encoded) (Tn10-encoded (organism not stated))
[4] = molecular target: T2, full-length class C TetR (Escherichia coli) (UniProt P03039)
T2 sequence: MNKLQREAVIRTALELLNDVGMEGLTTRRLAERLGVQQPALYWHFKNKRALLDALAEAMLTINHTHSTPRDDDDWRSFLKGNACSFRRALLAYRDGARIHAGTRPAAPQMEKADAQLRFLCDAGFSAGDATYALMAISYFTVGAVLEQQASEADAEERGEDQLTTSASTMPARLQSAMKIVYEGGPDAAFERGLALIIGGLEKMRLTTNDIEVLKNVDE

B1: deletion mutant of the Tn10-encoded class B TetR (Δ26-53) (protein)
chain: MSRLDKSKVINSALELLNEVGIEGLALAIEMLDRHHTHFCPLEGESWQDFLRNKAKSFRCALLSHRDGAKVHLGTRPTEKQYETLENQLAFLCQQGFSLENALYALSAVGHFTLGCVLEDQEHQVAKEERETPTTDSMPPLLRQAIELFDHQGAEPAFLFGLELIICGLEKQLKCESGS
[1]
  Factor of Transdominance (β-galactosidase activity with against without the deletion mutant): 1 fold
[2]
  Factor of Transdominance (β-galactosidase activity with against without the deletion mutant): 1.1 fold
[3]
  Factor of Transdominance (β-galactosidase activity with against without the deletion mutant): 22 fold
[4]
  Factor of Transdominance (β-galactosidase activity with against without the deletion mutant): 2 fold

— patent US20030022315A1
